Data published in article PMC10187114.
pKd: −log10 of the molar value.

Assays:
[1] = biological target: VPS35L (human) (UniProt Q7Z3J2); assay: SEC; Retriever co-expressed in insect cells, affinity purification then size-exclusion chromatography (Superdex200, 25 mM HEPES pH 8.0, 300 mM NaCl, 2 mM β-mercaptoethanol, 4°C)
[2] = biological target: VPS29 (recombinant) (human) (UniProt Q9UBQ0); assay: ITC; VPS35L peptides at 600 μM titrated into 20 μM VPS29, 100 mM Tris pH 7.4, 300 mM NaCl, 25°C, single site model

| stoichiometry N [1] | pKd [2] | Substance |
| --- | --- | --- |
| 1 |  | 3xStrepII-VPS26C (from UniProt O14972 1-297) (natural protein) |
|  | 5.17 | VPS35L (28-37) peptide (from UniProt Q7Z3J2 28-37) |
